Reference: publication PMC4660199 (Nature Communications, 2015)
Where no end group is shown, it is not given here.

Columns and labels:
Conditions in all cases: both partners purified
[1] = target: T1, A3CT (Alb3 C-terminal tail) produced as His6-Trx fusion for NMR (UniProt Q8LBP4 363-462, 15N,13C labelled where it is the observed partner in NMR); experiment: NMR titration; 1H,15N HSQC chemical shift perturbations of the labelled partner on stepwise addition of the unlabelled ligand, 298 K, 20 mM Na-phosphate (pH 6.5), 150 mM NaCl
T1 construct: Alb3 insertase C-terminal tail; the A3CT constructs encode residues 363-462; this one is used for all NMR rows; also called Trx–A3CT
T1 sequence (looked up): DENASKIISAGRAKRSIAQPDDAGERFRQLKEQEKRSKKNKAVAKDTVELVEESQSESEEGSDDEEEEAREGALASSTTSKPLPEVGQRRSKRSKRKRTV

cpSRP43 CD2CD3 [2] = target: T2, cpSRP43 CD2CD3 (UniProt O22265 264-373, 15N,13C labelled where it is the observed partner in NMR); experiment: crystal structure; His6–Trx–CD2CD3–(GS)3–A3CT IV on one chain, 2.8 Å, two molecules in the asymmetric unit; 20% PEG 3350, 0.2 M Ca(OAc)2, 18 °C
T2 construct: cpSRP43 chromodomains 2 and 3, residues 264-373; His6-Trx is joined through a cleavable TEV site; In the crystal structure the same range stands inside the fusion m15; also called cpSRP43 CD2CD3 deletion construct; source: E. coli Rosetta2 pLysS, purified (as His6-Trx fusion with a cleavable TEV site; Superdex75)
T2 sequence (looked up): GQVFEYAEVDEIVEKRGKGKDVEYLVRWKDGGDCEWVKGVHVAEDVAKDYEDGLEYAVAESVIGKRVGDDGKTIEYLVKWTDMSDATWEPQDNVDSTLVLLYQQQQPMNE

cpSRP43 CD2CD3 [3] = target: T2, cpSRP43 CD2CD3; experiment: SAXS; CD2CD3 alone and with 7 × molar excess of A3CT IV, 298 K
full-length cpSRP43 = target: T3, full-length cpSRP43 (UniProt O22265 57-373); experiment: ITC; VP-ITC, 20 °C, 20 mM Hepes (pH 7.5), 150 mM NaCl, 5 mM MgCl2, 0.25 mM TCEP; 0.01–0.1 mM in the cell, 0.1–1.0 mM in the syringe; duplicate or triplicate
T3 construct: cpSRP43, the 43-kDa subunit of the chloroplast signal recognition particle (CD1, Ank1-4, CD2, CD3); called full-length in the results; the chloroplast transit peptide may be absent from the recombinant protein (surmise); also called cpSRP43 wild-type; source: E. coli Rosetta (DE3) pLysS, purified (HisTrap, size-exclusion chromatography)

B1: cpSRP43 CD3 (domain or fragment, UniProt O22265 316-373, looked up)
chain: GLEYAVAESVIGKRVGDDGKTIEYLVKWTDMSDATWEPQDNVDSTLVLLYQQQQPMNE
notes: Gly316 is the N-terminal residue in the CD3 constructs; also called CD3 only; cpSRP43 CD3 deletion construct; source: E. coli Rosetta2 pLysS, purified (as His6-Trx fusion with a cleavable TEV site; Superdex75); not shown: His6, N-terminal, cleaved; thioredoxin (Trx), N-terminal, cleaved
B1: binds [1].

B2: A3CT IV (residues 440–461) as joined to CD2CD3 in the fusion construct (peptide, UniProt Q8LBP4 440-461, looked up)
peptide: TTSKPLPEVGQRRSKRSKRKRT
notes: Alb3 C-terminal tail motif IV, residues 440-461; residues 453-461 are ordered in the structure, 454-KRSKRKR-460 is threaded into CD3; Stood on one chain with CD2CD3 through a (GS)3 linker; also called A3CT motif IV; motif IV; source: E. coli Rosetta2 (DE3) pLysS, purified as part of His6–Trx–CD2CD3–IV
B2: binds (cpSRP43 CD2CD3 [2]).

B3: A3CT IV peptide (peptide, UniProt Q8LBP4 434-461, looked up)
peptide: GALASSTTSKPLPEVGQRRSKRSKRKRT
modifications: also: 15N,13C labelled where it is the observed NMR partner
notes: Alb3 C-terminal 28 residues including motif IV, residues 434-461 (holds 454-KRSKRKR-460); The ITC methods also say that peptides were purchased from PSL; also called A3CT motif IV; motif IV; source: E. coli BL21, purified (His6-GST fusion, TEV cleavage, HisTrap, Superdex75); not shown: His6, N-terminal, cleaved; GST, N-terminal, cleaved
B3: binds (cpSRP43 CD2CD3 [3]).

B4: A3CT motif II peptide (peptide)
chain: IISAGRAKRSI
modifications: The exact ends of the peptide are not printed. 369-379 is the region the text gives as including motif II, so the assayed peptide may be longer. Terminal chemistry is not stated.
In the case of B4, the Kd (full-length cpSRP43) is reported as 150 µM.
